The target in one assay is T1, bovine serum albumin (bovine, UniProt P02769 25-607).
T1 construct: Irrelevant antigen in the ELISA; also called BSA
Nature of the assay: ELISA on coated antigens (data not shown). For orientation: ELISA stands for enzyme-linked immunosorbent assay.

The target of a further assay is T2, ovalbumin (UniProt P01012 2-386).
T2 construct: Irrelevant antigen in the ELISA
T2 sequence (looked up): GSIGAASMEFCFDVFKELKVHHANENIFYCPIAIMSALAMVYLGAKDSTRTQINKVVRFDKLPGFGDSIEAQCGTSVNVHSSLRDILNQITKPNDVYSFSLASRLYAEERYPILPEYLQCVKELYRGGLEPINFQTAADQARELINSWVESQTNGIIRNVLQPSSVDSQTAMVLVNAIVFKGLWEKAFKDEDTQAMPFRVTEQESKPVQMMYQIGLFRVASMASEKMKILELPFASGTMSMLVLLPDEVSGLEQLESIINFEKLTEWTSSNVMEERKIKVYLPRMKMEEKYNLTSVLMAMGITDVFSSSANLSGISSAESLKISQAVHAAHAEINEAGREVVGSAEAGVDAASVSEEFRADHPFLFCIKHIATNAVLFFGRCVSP
The experiment in a line: ELISA on coated antigens (data not shown).

We go through 1 molecule from patent US20050048070A1 (published 2005).

T1 sequence (P02769 25-607 limits assumed): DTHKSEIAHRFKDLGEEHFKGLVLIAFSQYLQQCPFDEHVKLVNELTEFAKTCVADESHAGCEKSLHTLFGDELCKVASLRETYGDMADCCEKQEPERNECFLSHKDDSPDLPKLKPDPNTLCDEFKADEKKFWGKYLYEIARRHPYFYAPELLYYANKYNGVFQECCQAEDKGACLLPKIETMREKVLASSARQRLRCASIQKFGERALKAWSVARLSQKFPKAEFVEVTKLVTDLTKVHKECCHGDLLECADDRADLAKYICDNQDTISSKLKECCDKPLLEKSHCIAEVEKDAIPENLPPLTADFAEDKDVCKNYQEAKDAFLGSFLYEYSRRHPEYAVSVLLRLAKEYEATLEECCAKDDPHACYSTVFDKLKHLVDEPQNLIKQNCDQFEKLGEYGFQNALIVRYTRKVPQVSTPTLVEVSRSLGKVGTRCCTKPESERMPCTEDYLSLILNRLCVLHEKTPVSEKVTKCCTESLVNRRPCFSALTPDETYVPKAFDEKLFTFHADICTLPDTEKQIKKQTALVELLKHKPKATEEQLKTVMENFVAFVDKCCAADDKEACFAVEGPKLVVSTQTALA
Procedure for bovine serum albumin: (§1) ELISA wells (Costar) were coated overnight at 4° C. with 50 μl of antigen (1-10 μg/ml) in 0.1 M bicarbonate buffer, pH 8.6. DNA in PBS was dried on the ELISA wells at 37° C. The wells were washed twice with PBS, blocked by filling the wells with 3% BSA in PBS for 1 h at 37° C., and incubated with human Fab samples or intact human IgM antibody for 2 h at 37° C. Plates were washed 10 times with PBS-Tween and bound Fab was detected with alkaline phosphatase (AP) labeled goat anti-human IgG F(ab′)₂ (Pierce Chemical Co, Rockford, Ill.) diluted 500 fold in PBS or alkaline phosphatase-labeled rabbit anti-human κ-chain (Sigma) diluted 1000 fold in PBS. Bound antibody was visualized with para-nitrophenylphosphate (Sigma)(1 mg/ml, 1 mM MgCl₂, 10% (w/v) diethanolamine, pH 9.6) and read at 405 nm.
Procedure for ovalbumin: as §1

B1: recombinant B9165 Fab (Fab, V domains shown)
VH: GAEVKKPGASVKVSCKASDYTFSSYYMHWVRQAPGQGLEWMGIINPSGGSTSYAQKFQGRVTMTRDTSTNTVYMELSSLRSEDTAVYYCARDQVVVAATLSNYGMDVWGQGTTVTVSS
VL: ELTQSPGTLSLSPGERATLSCRASQSVSSSYLAWYQQKPGQAPRLLIYDASNRATGIPARFSGSGSGTDFTLTISSLEPEDFAVYYCQQGTNWGIAFGQGTRLDIKR
notes: Soluble Fab (mu Fd region plus kappa light chain) cloned from hybridoma B9165 by phage display in pComb3 and expressed in E. coli; also called cloned B9165 Fab; Fab of COU-1
With B1, the binding result in the assay with bovine serum albumin and in the assay with ovalbumin was “no binding” in each case.
